The target in the series is VEGF (Homo sapiens, UniProt P15692-4 P15692-4:27-191). The series can be described thus: EMSA; 1:1 molar ratio, 3 h, room temperature, 100 mM phosphate neutral pH, 10% TBE gel; high MW complex band; confirmed by HPLC-SEC at 552 nm (FIG. 33). The following applies: chain copies: 2; label: 5' Cy3. From the text:
The biological activity and therapeutic action of the anti-VEGF aptamer resides in its binding to its target: human recombinant VEGF. Without access to a growth factor, some cells will not be able to proliferate or survive; thus, these molecules are drug targets. Some drugs or drug candidates operate by binding to a growth factor; these molecules can be in the antibody (naturally produced or synthetically constructed) or the apatamer (nucleic acids) classes (e.g., any binding partner in theory). […] A shift mobility assay, using a 10% TBE gel, was used in order to assess the binding of HEP-aptamer to target (FIG. 32). […] As negative and positive control, VEGF was respectively incubated in the presence of heparosan (HEP) or heparin (i.e., VEGF is known to react with heparin and heparan sulfate).

Sequence of VEGF (P15692 other isoform, or with tags, fused parts or gaps): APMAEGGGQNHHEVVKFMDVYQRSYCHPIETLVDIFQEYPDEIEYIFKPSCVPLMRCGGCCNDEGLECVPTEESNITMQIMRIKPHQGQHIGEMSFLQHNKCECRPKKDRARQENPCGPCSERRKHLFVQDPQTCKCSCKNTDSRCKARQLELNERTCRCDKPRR

B1: HEP-anti-VEGF DNA aptamer (ssDNA)
DNA: ACCCGTCTTCCAGACAAGAGTGCAGGGTT
modifications: 3' C6 thiol coupled to heparosan (38.8- or 60-kDa chain)
On to B1, for which the binding result is “binds”.

The values above are taken from patent US20150118185, “Heparosan-Polypeptide and Heparosan-Polynucleotide Drug Conjugates and Methods of Making and Using Same” (The Board of Regents of the University of Oklahoma, published 2015).
